This is an account of results in patent US7446182.

For orientation: koff means the first-order rate constant of dissociation. A lower koff goes with a long-lived complex. The term kon denotes the second-order rate constant of association. Low readings indicate slower complex formation, high ones faster complex formation. The Kd is the constant that tells how readily two partners part at equilibrium. A high value points to weaker binding. Broadly, the EC50 (read off the curve) is the concentration giving half of the maximal effect. Lower therefore signals an effect from little substance.

Test [1] concerns the target Bacillus anthracis protective antigen (PA), 83 kDa polypeptide (Bacillus anthracis) (UniProt P13423). The test can be described thus: SPR, PA immobilized on CM5 chip. Background: In SPR one partner is held on a chip, and binding of the other changes the refractive index at the surface.
Test [2] shares this target. Description: SPR, PA immobilized on CM5 chip. This is another data set of the same source.
For test [3] the target is unchanged. The test can be described thus: SPR, PA immobilized on CM5 chip at low coupling density.
The target is the same in test [4]. The test can be described thus: ELISA on PA; scFv kept 2 h at 4 C before the titration. (An ELISA detects its analyte on a solid surface through an enzyme-linked reagent.)

Where two headings read alike, the source gives them in different places.

Bacillus anthracis protective antigen (PA), 83 kDa polypeptide (Bacillus anthracis), sequence (P13423 30-764 limits assumed): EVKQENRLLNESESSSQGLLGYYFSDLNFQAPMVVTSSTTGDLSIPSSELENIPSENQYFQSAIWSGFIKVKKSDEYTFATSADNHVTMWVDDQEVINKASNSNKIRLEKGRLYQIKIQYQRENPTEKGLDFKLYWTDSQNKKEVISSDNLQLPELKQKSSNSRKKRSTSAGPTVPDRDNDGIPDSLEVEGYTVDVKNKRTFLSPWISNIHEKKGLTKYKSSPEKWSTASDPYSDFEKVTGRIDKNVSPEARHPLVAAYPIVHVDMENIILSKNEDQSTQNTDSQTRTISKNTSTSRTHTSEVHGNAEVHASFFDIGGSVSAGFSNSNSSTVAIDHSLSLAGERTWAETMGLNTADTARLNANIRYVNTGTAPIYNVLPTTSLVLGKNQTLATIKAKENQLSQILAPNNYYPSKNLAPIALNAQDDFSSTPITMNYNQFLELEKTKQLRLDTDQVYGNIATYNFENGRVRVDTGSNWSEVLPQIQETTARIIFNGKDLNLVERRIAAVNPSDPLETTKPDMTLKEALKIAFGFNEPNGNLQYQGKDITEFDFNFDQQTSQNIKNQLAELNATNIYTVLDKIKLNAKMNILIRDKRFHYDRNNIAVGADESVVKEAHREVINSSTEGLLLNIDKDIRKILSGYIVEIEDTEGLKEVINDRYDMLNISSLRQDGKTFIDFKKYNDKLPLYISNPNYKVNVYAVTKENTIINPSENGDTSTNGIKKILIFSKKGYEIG

Turning to “14B7 Fab (papain digest of the 14B7 mouse IgG1)”, in test [1], the koff is 0.0035 s⁻¹ and the kon was found to be 310000 M⁻¹ s⁻¹. Also, in test [2], the Kd was 12 nM, the koff was found to be 0.0033 s⁻¹ and the kon stood at 300000 M⁻¹ s⁻¹.

In test [2], “14B7 monoclonal antibody (mouse IgG1 from hybridoma 14B7)” showed a koff of 0.00135 s⁻¹ and a kon of 500000 M⁻¹ s⁻¹. This substance also showed a dissociation constant Kd in test [3] of 2.3 nM.

In test [2], “14B7 wild type scAb (scFv with a C-terminal human constant kappa domain)” came in with a koff of 0.003 s⁻¹ and a kon of 290000 M⁻¹ s⁻¹.

14B7 wild type scFv: the koff in test [1] turned out to be 0.0035 s⁻¹. Further, in test [2], the Kd came out at 12 nM, the koff was 0.0032 s⁻¹ and the kon stood at 310000 M⁻¹ s⁻¹. For the same substance, the EC50 (read off the curve) in test [4] was 0.05 µg/mL.
